The test concerns the target recombinant protein of C-terminal domain of tetanus toxin heavy chain with C-terminal His tag (TT-Hc-His) (Clostridium tetani, UniProt P04958 865-1315).

A value given as a limit tells only on which side of the number the result lay.

B1: S24B8-h1-IgG1 (antibody, V domains shown)
VH: QVQLVQSGAEVKKPGSSVKVSCKASGYTFTSYWIYWVRQAPGQGLEWIGEINPTNGFANYNEKFKTKATITVDKSTSTAYMELSSLRSEDTAVYYCAIHFRFPYWGQGTMVTVSS
VL: DIQMTQSPSSLSASVGDRVTITCRASQDIGSSLTWLQQKPGKAPKRLIYATSSLDSGVPSRFSGSGSGTDYTLTISSLQPEDFATYYCLQYASSPYTFGQGTKLEIK
On to B1, for which the koff is below 1e-05 s⁻¹.

B2: S24B8-h3-IgG1 (antibody, V domains shown)
VH: QVQLVQSGAEVKKPGSSVKVSCKASGYTFTSYWIYWVRQAPGQGLEWIGEINPTNAFANYNEKFKTKATITVDKSTSTAYMELSSLRSEDTAVYYCAIHFRFPYWGQGTMVTVSS
VL: DIQMTQSPSSLSASVGDRVTITCRASQDIGSSLTWLQQKPGKAPKRLIYATSSLDSGVPSRFSGSGSGTDYTLTISSLQPEDFATYYCLQYASSPYTFGQGTKLEIK
For B2, the dissociation constant Kd amounted to 0.164 nM.

B3: S24B8-h2-IgG1 (antibody, V domains shown)
VH: QVQLVQSGAEVKKPGSSVKVSCKASGYTFTSYWIYWVRQAPGQGLEWIGEINPTAGFANYNEKFKTKATITVDKSTSTAYMELSSLRSEDTAVYYCAIHFRFPYWGQGTMVTVSS
VL: DIQMTQSPSSLSASVGDRVTITCRASQDIGSSLTWLQQKPGKAPKRLIYATSSLDSGVPSRFSGSGSGTDYTLTISSLQPEDFATYYCLQYASSPYTFGQGTKLEIK
Turning to B3, the Kd is 0.385 nM.

B4: S22E2-h1-IgG1 (antibody, V domains shown)
VH: QVTLKESGPVLVKPTETLTLTCTVSGFSLTDYGVNWIRQPPGKALEWLGMIWSDGTTDYSSALKSRLTISKDTSKSQVVLTMTNMDPVDTATYYCARVDGYSHYYAMDYWGQGTLVTVSS
VL: DIQMTQSPSSLSASVGDRVTITCRASENIYSYLAWYQQKQGKAPQLLIYNAKTLAEGVSSRFSGSGSGTQFTLTISSLQPEDFATYYCQHHYGLPFTFGQGTKLEIK
In the case of B4, the dissociation constant (Kd) was determined as 0.573 nM.

The values above are taken from patent US20250129141A1 (BEIJING WISDOMAB BIOTECHNOLOGY, published 2025).
